The results in this text go back to the supplement of paper PMC10567573.

First the molecules themselves.
B1: RAB22A (parent)
chain: FVEDSFDPNINPTIGASFMTKTVQ
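Note: lentivirally expressed fusions sorted by FACS into six bins by GFP to DsRed ratio, PSI derived from sequencing read proportions per bin multiplied by bin number.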

In the data set the parent is B1. Nature of the data set: protein stability index of a GFP-peptide fusion (GPS, HEK-293T) (PSI 1-6); higher = more stable. Particulars: c terminus: a fixed tail appended.
Take FVEDSFDPNINPTRGASFMTKTVQ [I14R]: the protein stability index was determined as 2.14.

As for FVEDSFDPNINPTSGASFMTKTVQ [I14S], the protein stability index turned out to be 2.46.

Regarding FVEDSFDPNINPTVGASFMTKTVQ [I14V], the protein stability index was found to be 2.69.

FVEDSFDPNINPTTGASFMTKTVQ [I14T]: the protein stability index turned out to be 2.78.

As for FVEDSFDPNINPTPGASFMTKTVQ [I14P], the protein stability index was 3.07.

Turning to FVEDSFDPNINPTYGASFMTKTVQ [I14Y], the protein stability index stood at 2.23.

With FVEDSFDPNINPTWGASFMTKTVQ [I14W], the protein stability index came to 2.43.

For FVEDSFDPNINPTQGASFMTKTVQ [I14Q], the protein stability index was 2.78.

As to FVEDSFDPNINPTIGASFMHKTVQ [T20H], the protein stability index was found to be 2.34.

As to FVEDSFDPNINPTIGASFMCKTVQ [T20C], the protein stability index came to 2.38.

In the case of FVEDSFDPNINPTIGASFMIKTVQ [T20I], the protein stability index was 1.87.

In the case of FVEDSFDPNINPTIGASFMPKTVQ [T20P], the protein stability index came to 2.29.

As for FVEDSFDPNINPTIGASFMEKTVQ [T20E], the protein stability index stood at 2.39.

FVEDSFDPNINPTIGASFMKKTVQ [T20K]: the protein stability index turned out to be 2.23.

For the variant FVEDSFDPNINPTIGASFMAKTVQ [T20A], the protein stability index is 2.14.

With FVEDSFDPNINPTIGASFMGKTVQ [T20G], the protein stability index amounted to 2.58.

Take FVEDSFDPNINPTIGASFMFKTVQ [T20F]: the protein stability index was determined as 1.85.

As to FVEDSFDPNINPTIGASFMVKTVQ [T20V], the protein stability index came to 2.23.

On to FVEDSFDPNINPTIGASFMRKTVQ [T20R], for which the protein stability index is 2.12.

In the case of FVEDSFDPNINPTIGASFMMKTVQ [T20M], the protein stability index turned out to be 2.22.

On to FVEDSFDPNINPTIGASFMWKTVQ [T20W], for which the protein stability index was 2.35.

FVEDSFDPNINPTIGASFMSKTVQ [T20S]: the protein stability index was determined as 2.06.

On to FVEDSFDPNINPTIGASFMYKTVQ [T20Y], for which the protein stability index was 1.86.

On to FVEDSFDPNINPTIGASFMLKTVQ [T20L], for which the protein stability index is 1.66.

Turning to FVEDSFDPNINPTIGASFMDKTVQ [T20D], the protein stability index was 2.52.

For the variant FVEDSFDPNINPTIGASFMQKTVQ [T20Q], the protein stability index came to 2.24.

As to FVEDSFDPNINPTIGASFMNKTVQ [T20N], the protein stability index was determined as 2.31.

Turning to FVEDSFDPNINPTIGASFMTPTVQ [K21P], the protein stability index was 2.74.

FVEDSFDPNINPTIGASFMTDTVQ [K21D]: the protein stability index came to 2.87.

On to FVEDSFDPNINPTIGASFMTITVQ [K21I], for which the protein stability index turned out to be 2.18.

On to FVEDSFDPNINPTIGASFMTSTVQ [K21S], for which the protein stability index worked out at 2.11.

Take FVEDSFDPNINPTIGASFMTNTVQ [K21N]: the protein stability index amounted to 2.51.

For FVEDSFDPNINPTIGASFMTVTVQ [K21V], the protein stability index is 1.89.

Take FVEDSFDPNINPTIGASFMTHTVQ [K21H]: the protein stability index stood at 2.08.

In the case of FVEDSFDPNINPTIGASFMTFTVQ [K21F], the protein stability index turned out to be 2.38.

Take FVEDSFDPNINPTIGASFMTQTVQ [K21Q]: the protein stability index was found to be 2.87.

Turning to FVEDSFDPNINPTIGASFMTYTVQ [K21Y], the protein stability index was 1.93.

Turning to FVEDSFDPNINPTIGASFMTETVQ [K21E], the protein stability index amounted to 2.67.

For FVEDSFDPNINPTIGASFMTATVQ [K21A], the protein stability index was found to be 2.03.

Take FVEDSFDPNINPTIGASFMTLTVQ [K21L]: the protein stability index turned out to be 2.24.

Consider FVEDSFDPNINPTIGASFMTWTVQ [K21W], for which the protein stability index turned out to be 2.44.

With FVEDSFDPNINPTIGASFMTTTVQ [K21T], the protein stability index was found to be 2.41.

Take FVEDSFDPNINPTIGASFMTGTVQ [K21G]: the protein stability index was found to be 2.29.

On to FVEDSFDPNINPTIGASFMTMTVQ [K21M], for which the protein stability index was 1.94.

Consider FVEDSFDPNINPTIGASFMTRTVQ [K21R], for which the protein stability index came to 2.19.

As for FVEDSFDPNINPTIGASFMTCTVQ [K21C], the protein stability index is 1.56.

For FVEDSFDPNINPTIGASFMTKTVE [Q24E], the protein stability index worked out at 2.91.

Turning to FVEDSFDPNINPTIGASFMTKTVG [Q24G], the protein stability index stood at 2.22.

Regarding FVEDSFDPNINPTIGASFMTKTVK [Q24K], the protein stability index was found to be 2.15.

As to FVEDSFDPNINPTIGASFMTKTVA [Q24A], the protein stability index stood at 2.11.

Turning to FVEDSFDPNINPTIGASFMTKTVF [Q24F], the protein stability index was determined as 1.49.

Regarding FVEDSFDPNINPTIGASFMTKTVH [Q24H], the protein stability index amounted to 2.1.

As to FVEDSFDPNINPTIGASFMTKTVC [Q24C], the protein stability index stood at 1.89.

Take FVEDSFDPNINPTIGASFMTKTVI [Q24I]: the protein stability index was determined as 1.55.

For the variant FVEDSFDPNINPTIGASFMTKTVD [Q24D], the protein stability index amounted to 2.56.

Regarding FVEDSFDPNINPTIGASFMTKTLQ [V23L], the protein stability index amounted to 2.93.

Regarding FVEDSFDPNINPTIGASFMTKTDQ [V23D], the protein stability index is 2.76.

Regarding FVEDSFDPNINPTIGASFMTKTNQ [V23N], the protein stability index was 2.44.

For FVEDSFDPNINPTIGASFMTKTRQ [V23R], the protein stability index amounted to 1.89.

For FVEDSFDPNINPTIGASFMTKTPQ [V23P], the protein stability index was found to be 2.94.

In the case of FVEDSFDPNINPTIGASFMTKTAQ [V23A], the protein stability index was determined as 2.43.

On to FVEDSFDPNINPTIGASFMTKTFQ [V23F], for which the protein stability index amounted to 1.79.

Consider FVEDSFDPNINPTIGASFMTKTEQ [V23E], for which the protein stability index came to 3.24.

FVEDSFDPNINPTIGASFMTKTIQ [V23I]: the protein stability index stood at 2.37.

For FVEDSFDPNINPTIGASFMTKTHQ [V23H], the protein stability index was determined as 2.5.

In the case of FVEDSFDPNINPTIGASFMTKTCQ [V23C], the protein stability index stood at 2.37.

As to FVEDSFDPNINPTIGASFMTKTMQ [V23M], the protein stability index came to 1.98.

With FVEDSFDPNINPTIGASFMTKTYQ [V23Y], the protein stability index amounted to 2.52.

As to FVEDSFDPNINPTIGASFMTKTKQ [V23K], the protein stability index is 2.26.

Consider FVEDSFDPNINPTIGASFMTKTWQ [V23W], for which the protein stability index was determined as 2.5.

Take FVEDSFDPNINPTIGASFMTKTQQ [V23Q]: the protein stability index was determined as 2.39.

With FVEDSFDPNINPTIGASFMTKTTQ [V23T], the protein stability index turned out to be 2.78.

For FVEDSFDPNINPTIGASFMTKTGQ [V23G], the protein stability index was 2.56.

Consider FVEDSFDPNINPTIGASFMTKTSQ [V23S], for which the protein stability index was found to be 2.66.

Consider FVEDSFDPNINPTIGAHFMTKTVQ [S17H], for which the protein stability index stood at 2.35.

Consider FVEDSFDPNINPTIGAPFMTKTVQ [S17P], for which the protein stability index was found to be 2.49.

As for FVEDSFDPNINPTIGAYFMTKTVQ [S17Y], the protein stability index is 1.82.

For the variant FVEDSFDPNINPTIGAIFMTKTVQ [S17I], the protein stability index came out at 2.25.

For the variant FVEDSFDPNINPTIGAAFMTKTVQ [S17A], the protein stability index worked out at 2.18.

For FVEDSFDPNINPTIGAMFMTKTVQ [S17M], the protein stability index is 1.74.

As for FVEDSFDPNINPTIGAVFMTKTVQ [S17V], the protein stability index turned out to be 1.74.

Turning to FVEDSFDPNINPTIGARFMTKTVQ [S17R], the protein stability index amounted to 2.51.

For the variant FVEDSFDPNINPTIGAKFMTKTVQ [S17K], the protein stability index is 2.29.

FVEDSFDPNINPTIGAEFMTKTVQ [S17E]: the protein stability index amounted to 2.66.

For the variant FVEDSFDPNINPTIGADFMTKTVQ [S17D], the protein stability index is 2.53.

Turning to FVEDSFDPNINPTIGAFFMTKTVQ [S17F], the protein stability index is 2.14.

On to FVEDSFDPNINPTIGAQFMTKTVQ [S17Q], for which the protein stability index turned out to be 2.6.

As to FVEDSFDPNINPTIGAWFMTKTVQ [S17W], the protein stability index came out at 1.96.

In the case of FVEDSFDPNINPTIGATFMTKTVQ [S17T], the protein stability index amounted to 2.17.

As for FVEDSFDPNINPTIGAGFMTKTVQ [S17G], the protein stability index worked out at 2.31.

Regarding FVEDSFDPNINPTIGANFMTKTVQ [S17N], the protein stability index stood at 2.28.

As for FVEDSFDPNINPTIGALFMTKTVQ [S17L], the protein stability index came to 1.77.

In the case of FVEDSFDPNINPTIGACFMTKTVQ [S17C], the protein stability index was 2.04.

FVEDSFDPNINPTIGASNMTKTVQ [F18N]: the protein stability index is 3.94.
